Here are results for 36 sequences from the supplement of paper PMC10567573.

± gives the standard deviation.

The nature of this data set: protein stability index of a GFP-peptide fusion (GPS, HEK-293T) (PSI 1-6); higher = more stable. The settings on record: c terminus: a fixed tail appended.
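Also: 24-mer peptide tiles fused after GFP, lentivirally expressed, FACS-sorted into six equal bins by GFP/DsRed ratio, decoded by Illumina sequencing, PSI is the read-weighted mean bin number.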

Regarding GNAHYQRADFVLAANSYDLAIKAI [FKBP8], the protein stability index turned out to be 2.5 ± 0.079 (treatment: DMSO) and 2.43 ± 0.33 (treatment: MLN4924 1 uM, 8 h).
For GNKSDLKQLRQVTKEEGLALAREF [RIT1], in that order: 4.31 ± 0.25 and 4.26 ± 0.12.
For GPARSGFRLETLAGLRSRRLKQPK [MIR22HG], in that order: 3.87 ± 0.24 and 4.14 ± 0.13.
For GPAVVCGTPTSHVYMFKNGSGDSG [LYSMD4], in that order: 3.7 ± 0.12 and 3.65 ± 0.33.
Take GPGDEVARGIAGEKFDIVKKWGIN [ARFIP2]: the protein stability index is, setting by setting: (treatment: DMSO) 4 ± 0.17; (treatment: MLN4924 1 uM, 8 h) 4.2 ± 0.046.
The sequence GQILELPWKEETFLVLQSLLERQV [FANCE] returned a protein stability index (treatment: DMSO) of 1.9 ± 0.35 and a protein stability index (treatment: MLN4924 1 uM, 8 h) of 2.1 ± 0.34.
For the sequence GQREPGSLSRNNSFRRNVGRVLLA [FBXO34], the protein stability index (treatment: DMSO) was determined as 3.11 ± 0.26 and the protein stability index (treatment: MLN4924 1 uM, 8 h) worked out at 3.46 ± 0.21.
On to GQRIRRGSIGVWHYICPRLGGIGF [SLC6A17], for which the protein stability index (treatment: DMSO) worked out at 2.23 ± 0.27 and the protein stability index (treatment: MLN4924 1 uM, 8 h) is 2.42 ± 0.2.
Take GRAVEHAMFLGDAAAHWYGGAEMR [MYORG]: the protein stability index reads like this: (treatment: DMSO) 2.87 ± 0.34; (treatment: MLN4924 1 uM, 8 h) 3.14 ± 0.27.
For GRDDLESFQLEISGFLKEMACPYS [FAM98B], in that order: 2.29 ± 0.3 and 2.67 ± 0.75.
In turn, GRNFILFIIFGTMEEMQNKAVVFF [HACD3] had a protein stability index (treatment: DMSO) of 2.94 ± 1.4 and a protein stability index (treatment: MLN4924 1 uM, 8 h) of 2.36 ± 1.2.
On to GRQPALRPHVHKQTEKTTRVRTVL [ISL2], for which the protein stability index came out at 3.66 ± 0.1 (treatment: DMSO) and 3.88 ± 0.17 (treatment: MLN4924 1 uM, 8 h).
As for GSAVEVQTYQPPWKALSEFALQSD [ISL2], the protein stability index by setting is: (treatment: DMSO) 3.61 ± 0.4; (treatment: MLN4924 1 uM, 8 h) 3.73 ± 0.39.
Turning to GSLDIMKMLLMYCAKMEKDGYGMT [FEM1C], the protein stability index was 3.22 ± 0.46 (treatment: DMSO) and 2.58 ± 0.7 (treatment: MLN4924 1 uM, 8 h).
Turning to GSLILPPGPGGTMKRHSSRDAAGK [FCHO1], the protein stability index is 4.68 ± 0.2 (treatment: DMSO) and 4.56 ± 0.2 (treatment: MLN4924 1 uM, 8 h).
As to GSQDGHFVLSCSYDGLDCQARQFR [SCNN1D], the protein stability index by setting is: (treatment: DMSO) 2.52 ± 0.12; (treatment: MLN4924 1 uM, 8 h) 2.71 ± 0.29.
For the sequence GSRCLKTFEVPEENTAETITRVLY [ZBED1], the protein stability index (treatment: DMSO) was 2.66 ± 0.47 and the protein stability index (treatment: MLN4924 1 uM, 8 h) came to 2.64 ± 0.18.
In the case of GSSDHSVIMWDIGGRKGTAIELQG [WDFY2], the protein stability index by setting is: (treatment: DMSO) 2.84 ± 0.43; (treatment: MLN4924 1 uM, 8 h) 2.83 ± 0.2.
For GSSSLGFTSSPSPFSSSSPENVED [FCHO1], in that order: 5.38 ± 0.2 and 5.29 ± 0.19.
With GTCALWDVESGQLLQSFHGHGADV [GNB5], the protein stability index reads like this: (treatment: DMSO) 2.75 ± 0.28; (treatment: MLN4924 1 uM, 8 h) 2.99 ± 0.51.
On to GTPGTPSYPRTPHTPGTPKSAILV [MAP2], for which the protein stability index is, setting by setting: (treatment: DMSO) 3.1 ± 0.12; (treatment: MLN4924 1 uM, 8 h) 3.24 ± 0.35.
As to GTPGYLSPEVLRKDPYGKPVDLWA [CAMK2A], the protein stability index runs as follows: (treatment: DMSO) 3.29 ± 0.39; (treatment: MLN4924 1 uM, 8 h) 3.16 ± 0.29.
With GTVVALLNVHDLDSEQNGQVTCSI [PCDHGA10], the protein stability index runs as follows: (treatment: DMSO) 2.23 ± 0.34; (treatment: MLN4924 1 uM, 8 h) 2.58 ± 0.24.
For GVEPSPSPIKPGDIKRGIPNYEFK [UFD1], in that order: 4.25 ± 0.24 and 4.24 ± 0.24.
In the case of GVLEAPDTQVNPVGSVSVDCGPSR [FBXO34], the protein stability index came to 5.03 ± 0.31 (treatment: DMSO) and 4.89 ± 0.6 (treatment: MLN4924 1 uM, 8 h).
Take GVLTRKTHADMDGKRTPRGRRGWK [PSD2]: the protein stability index reads like this: (treatment: DMSO) 4.47 ± 0.29; (treatment: MLN4924 1 uM, 8 h) 4.53 ± 0.29.
In the case of GVQKMNSKTVTSTMLGVFREDPKT [GCH1], the protein stability index is, setting by setting: (treatment: DMSO) 4.43 ± 0.45; (treatment: MLN4924 1 uM, 8 h) 4.05 ± 0.33.
With GWCSGDAISSVERYDPQTNEWRMV [KLHL20], the protein stability index by setting is: (treatment: DMSO) 2.84 ± 0.24; (treatment: MLN4924 1 uM, 8 h) 2.95 ± 0.34.
Regarding HEEFFPAFQAFTNDLLEILEIDDL [CEP70], the protein stability index was 3.48 ± 0.21 (treatment: DMSO) and 3.43 ± 0.37 (treatment: MLN4924 1 uM, 8 h).
In the case of HELLLGSLQQQHQADLELIESAHR [FBF1], the protein stability index reads like this: (treatment: DMSO) 4.66 ± 0.24; (treatment: MLN4924 1 uM, 8 h) 4.35 ± 0.21.
For HGHYSMHCLHSAGHSQPDGAYSSA [DLX1], the protein stability index runs as follows: (treatment: DMSO) 3.48 ± 0.27; (treatment: MLN4924 1 uM, 8 h) 3.47 ± 0.23.
With HGPFSGFPGPQEHTQVLPDVRLLP [DYRK1B], the protein stability index is, setting by setting: (treatment: DMSO) 3.57 ± 0.099; (treatment: MLN4924 1 uM, 8 h) 3.63 ± 0.21.
For HHHHGRDFLLRAASFDVCESVDEA [RHOBTB2], in that order: 4.04 ± 0.38 and 4.25 ± 0.27.
With HHLFPTMPRHNYHKVAPLVQSLCA [FADS1], the protein stability index (treatment: DMSO) was 2.4 ± 0.32 and the protein stability index (treatment: MLN4924 1 uM, 8 h) was 2.51 ± 0.17.
Regarding HHRYDDLVRTLYKVQNECPGITRV [CPN1], the protein stability index (treatment: DMSO) was 2.69 ± 0.34 and the protein stability index (treatment: MLN4924 1 uM, 8 h) amounted to 2.67 ± 0.098.
For HILKKYYGNGMRKSPEMPVILEVS [RTP4], in that order: 1.99 ± 0.51 and 2.2 ± 0.37.
